The labels stand for the following.
B1: A279T: E. coli AcrB (SEQ ID NO:1) variant with amino acid mutation A279T (protein)
chain: MPNFFIDRPIFAWVIAIIIMLAGGLAILKLPVAQYPTIAPPAVTISASYPGADAKTVQDTVTQVIEQNMNGIDNLMYMSSNSDSTGTVQITLTFESGTDADIAQVQVQNKLQLAMPLLPQEVQQQGVSVEKSSSSFLMVVGVINTDGTMTQEDISDYVAANMKDAISRTSGVGDVQLFGSQYAMRIWMNPNELNKFQLTPVDVITAIKAQNAQVAAGQLGGTPPVKGQQLNASIIAQTRLTSTEEFGKILLKVNQDGSRVLLRDVAKIELGGENYDIITEFNGQPASGLGIKLATGANALDTAAAIRAELAKMEPFFPSGLKIVYPYDTTPFVKISIHEVVKTLVEAIILVFLVMYLFLQNFRATLIPTIAVPVVLLGTFAVLAAFGFSINTLTMFGMVLAIGLLVDDAIVVVENVERVMAEEGLPPKEATRKSMGQIQGALVGIAMVLSAVFVPMAFFGGSTGAIYRQFSITIVSAMALSVLVALILTPALCATMLKPIAKGDHGEGKKGFFGWFNRMFEKSTHHYTDSVGGILRSTGRYLVLYLIIVVGMAYLFVRLPSSFLPDEDQGVFMTMVQLPAGATQERTQKVLNEVTHYYLTKEKNNVESVFAVNGFGFAGRGQNTGIAFVSLKDWADRPGEENKVEAITMRATRAFSQIKDAMVFAFNLPAIVELGTATGFDFELIDQAGLGHEKLTQARNQLLAEAAKHPDMLTSVRPNGLEDTPQFKIDIDQEKAQALGVSINDINTTLGAAWGGSYVNDFIDRGRVKKVYVMSEAKYRMLPDDIGDWYVRAADGQMVPFSAFSSSRWEYGSPRLERYNGLPSMEILGQAAPGKSTGEAMELMEQLASKLPTGVGYDWTGMSYQERLSGNQAPSLYAISLIVVFLCLAALYESWSIPFSVMLVVPLGVIGALLAATFRGLTNDVYFQVGLLTTIGLSAKNAILIVEFAKDLMDKEGKGLIEATLDAVRMRLRPILMTSLAFILGVMPLVISTGAGSGAQNAVGTGVMGGMVTATVLAIFFVPVFFVVVRRRFSRKNEDIEHSHTVDHH
modifications: E. coli
B2: F617L: E. coli AcrB (SEQ ID NO:1) variant with amino acid mutation F617L (protein)
chain: B1 chain with T279A, F617L
modifications: E. coli
B3: L822P: E. coli AcrB (SEQ ID NO:1) variant with amino acid mutation L822P (protein)
chain: B1 chain with T279A, L822P
modifications: E. coli
B4: F927S: E. coli AcrB (SEQ ID NO:1) variant with amino acid mutation F927S (protein)
chain: B1 chain with T279A, F927S
modifications: E. coli
B5: F1033Y: E. coli AcrB (SEQ ID NO:1) variant with amino acid mutation F1033Y (protein)
chain: B1 chain with T279A, F1033Y
modifications: E. coli
B6: TolC: outer membrane protein TolC encoded on plasmid pTolCa (protein, UniProt P02930 23-493, looked up)
Outer membrane protein TolC: ENLMQVYQQARLSNPELRKSAADRDAAFEKINEARSPLLPQLGLGADYTYSNGYRDANGINSNATSASLQLTQSIFDMSKWRALTLQEKAAGIQDVTYQTDQQTLILNTATAYFNVLNAIDVLSYTQAQKEAIYRQLDQTTQRFNVGLVAITDVQNARAQYDTVLANEVTARNNLDNAVEQLRQITGNYYPELAALNVENFKTDKPQPVNALLKEAEKRNLSLLQARLSQDLAREQIRQAQDGHLPTLDLTASTGISDTSYSGSKTRGAAGTQYDDSNMGQNKVGLSFSLPIYQGGMVNSQVKQAQYNFVGASEQLESAHRSVVQTVRSSFNNINASISSINAYKQAVVSAQSSLDAMEAGYSVGTRTIVDVLDATTTLYNAKQELANARYNYLINQLNIKSALGTLNEQDLLALNNALSKPVSTNPENVAPQTPEQNAIADGYAPDSPAPVVQQTSARTTTSNGHNPFRN

Residue numbers refer to the chain shown, from its start. Names may count otherwise. Converted amounts (≈) assume the structure as drawn.

In one assay the test system is E. coli K12. Nature of the assay: microbe, parasite or virus in culture. In kind it is cell-based. Particulars: Escherichia coli, K12, 2 h, read-out: toxic dose (concentration of compound that decreased growth by half).
Procedure: A: The olefin compounds were added to different concentrations as indicated to an E. coli K12 culture at an OD600=0.2. OD was monitored after 2 hour at 37° C. The bars represent standard deviation between duplicates B: A survival test in presence of 1-octene was performed. Six different dilutions of a culture (10 cells to 10^7 cells, left to right) of E. coli K12 were spotted in triplicate on an agar plate. […] Plates were incubated at room temperature for 2 days and then opened to allow evaporation of the olefin.
In this example, toxicity of olefin compounds was evaluated. A toxic dose was defined as the concentration of compound that decreased growth by half.
Take `C=CCCCC` [1-hexene]: the IC50 turned out to be 65 µg/mL (≈ 772 µM).
With `C=Cc1ccccc1` [styrene], the IC50 is 110 µg/mL (≈ 1060 µM).

In the next assay the test system is E. coli K12 ΔacrAB. Briefly: Survival assay on agar plate in olefin saturated atmosphere, strains producing AcrAB or AcrB variants. Format: cell-based. Particulars: 1-hexene saturated atmosphere. Here is the method: FIG. 2: impact of AcrAB production on growth, in presence of styrene 1-hexene, 1-octene and 1-nonene on cell growth. A: Different concentrations of styrene were added to an OD600=0.2 culture of E. coli K12 ΔacrAB containing the pABc (white) or the control plasmid p0c (black). OD density was monitored after 2 hours of growth at 37° C. The bars represent standard deviation between duplicates. B: A survival test in presence of 1-hexene, 1-octene, or 1-nonene saturated atmosphere was performed. Six different dilutions of cultures (10 cells to 10^7 cells, left to right on the figure) were spotted in triplicate on an agar plates. Plates were then exposed to the aforementioned chemicals.
FIG. 4: Impact of beneficial mutations on AcrB on tolerance to 1-hexene, A: Survival test of E. coli strain producing either the AcrB wild type or variants in a 1-hexene saturated atmosphere was performed. Two dilutions of cultures (Dilution 1: 10^5 cells and Dilution 2: 10^4 cells) were spotted in triplicate on an agar plate. B: Localization of the 6 beneficial mutations represented on the structure of a single monomer of AcrB or C: on the structure of the AcrB trimer.
FIG. 6: Impact of beneficial mutations on AcrB on tolerance to 1-hexene. A: Survival test of E. coli strain producing either the AcrB Wild type or variants with 1, 2 or several beneficial mutations, in an 1-hexene saturated atmosphere was performed. Two dilutions of cultures (Dilution 2: 10^4 cells and Dilution 3: 10^3 cells) were spotted in triplicate on an agar plate. B: Soluble fraction of total proteins from a culture of strains producing either the wild type, either the variant F617L, either the variant 6 (A279T, Q584R, F617L) were analyzed by western blot using anti-His antibody.
For agar plate based assays, cells were first streaked overnight and few colonies were used to inoculate a preculture of 6 mL of LB-Cm with glucose (2 g/L) and arabinose (5 mM). At OD60=1 at 37° C., the cultures were used to prepare a dilution series. Dilution 0 (D0) corresponds to the OD600, =1, and contains ˜10^9 cells/mL. Dilution 1 (D1) is a 10-fold dilution of D0, dilution 2 (D2) a 10-fold dilution of D1 up to dilution 5 (D5), which contains ˜10^4 cells/mL. 10 μL of each dilution was spotted in triplicate on LB-agar plates (single well plates, Thermo Scientific, Waltham, Mass.) containing 30 mL of LB-agar, Cm (30 mg/L), glucose (2 g/L) and arabinose (5 mM). Small containers (microfuge tube lids) were placed on the open lid of the agar plate and filled with 400 to 600 μL of 1-hexene or 1-octene or with 75 μL of 1-nonene. The agar plates were then inverted over the lid, cells facing the olefin compound, sealed with parafilm, placed in the plastic bag (the original packaging for the petri dishes) and incubated for 2 days at room temperature. For 1-octene, a second condition, via overlaying 2 mL of compound on the top of the agar submerging the cells, was used. TolC overexpression impact was examined using the same method, but in this case, the LB media and the LB-agar were also supplemented with ampicillin (100 mg/L) and IPTG (100 μM). […]
On to B1, for which the “efficiency among the beneficial mutations” value is on record as “more efficient”.
On to B2, for which the “efficiency among the beneficial mutations” value was “more efficient”.
As for B3, the “efficiency among the beneficial mutations” value is reported as “more efficient”.

Staying with this assay, now noted: single mutation AcrB variants, 1-hexene saturated atmosphere, FIG. 4A.
Consider B1, for which the “tolerance to 1-hexene relative to wild type AcrB sequence” value is reported as “improvement in tolerance”.
With B2, the “tolerance to 1-hexene relative to wild type AcrB sequence” value was “improvement in tolerance”.
Same read-out and setting: the same measure for B4: “improvement in tolerance”; for B3: “improvement in tolerance”; for B5: “improvement in tolerance”.

A further assay concerns E. coli K12 wild type. Briefly: Survival test in 1-hexene saturated atmosphere on over-production of AcrA, AcrB and TolC. Format: cell-based. Particulars: FIG. 3.
Procedure: Six different dilutions of cultures (10 cells to 10^7 cells, left to right on the picture) were spotted in triplicate on an agar plate.
For agar plate based assays, cells were first streaked overnight and few colonies were used to inoculate a preculture of 6 mL of LB-Cm with glucose (2 g/L) and arabinose (5 mM). At OD60=1 at 37° C., the cultures were used to prepare a dilution series. Dilution 0 (D0) corresponds to the OD600, =1, and contains ˜10^9 cells/mL. Dilution 1 (D1) is a 10-fold dilution of D0, dilution 2 (D2) a 10-fold dilution of D1 up to dilution 5 (D5), which contains ˜10^4 cells/mL. 10 μL of each dilution was spotted in triplicate on LB-agar plates (single well plates, Thermo Scientific, Waltham, Mass.) containing 30 mL of LB-agar, Cm (30 mg/L), glucose (2 g/L) and arabinose (5 mM). […] The agar plates were then inverted over the lid, cells facing the olefin compound, sealed with parafilm, placed in the plastic bag (the original packaging for the petri dishes) and incubated for 2 days at room temperature. For 1-octene, a second condition, via overlaying 2 mL of compound on the top of the agar submerging the cells, was used. TolC overexpression impact was examined using the same method, but in this case, the LB media and the LB-agar were also supplemented with ampicillin (100 mg/L) and IPTG (100 μM).
Take “acrA and acrB and TolC: E. coli tripartite RND efflux pump AcrAB-TolC, over-expressed from pABc and pTolCa”: the “tolerance to 1-hexene on over-expression in the wild type strain” value was “increased tolerance”.
The same measure, in the same setting: the same measure for B6: “does not improve the survival”.

The values above are taken from patent US10513713B2, “Modified host cells having tolerance to α-olefins” (priority 2014, dated 2019).
